This note sets out measurements from paper PMC12487888, “Molecular basis of the biogenesis of a protein organelle for ethanolamine utilization” (Science Advances, 2025).

B1: EutC^1–20 encapsulation peptide (peptide)
peptide: MDQKQIEEIVRSVMASMGQD
notes: EutC of S. Typhimurium LT2, N-terminal encapsulation peptide, residues 1-20; also called EutC peptide; EP of EutC; source: synthetic peptide (GenicBio)
B2: EutM-his (natural protein)
chain: MEALGMIETRGLVALIEASDAMVKAARVKLVGVKQIGGGLCTAMVRGDVAACKAATDAGAAAAQRIGELVSVHVIPRPHGDLEEVFPISFKGDSNI
modifications: dye on the His tag (His-tagged target proteins were labelled with dyes)
notes: shell protein EutM of S. Typhimurium LT2; the eutM gene was inserted into pET-22b (+); source: E. coli BL21(DE3), purified (Ni-NTA, gel filtration); not shown: His tag, C-terminal, kept
B3: EutL-strep (natural protein, S. Typhimurium LT2, UniProt P0A1C9 1-219, looked up)
chain: MPALDLIRPSVTAMRVIASVNDGFARELKLPPHIRSLGLITADSDDVTYIAADEATKQAMVEVVYGRSLYAGAAHGPSPTAGEVLIMLGGPNPAEVRAGLDAMVASIENGAAFQWANDAENTAFLAHVVSRTGSYLSSTAGIALGDPMAYLVAPPLEATFGIDAAMKSADVQLVTYVPPPSETNYSAAFLTGSQAACKAACNAFTDAVLDIARNPVQRA
notes: shell protein EutL of S. Typhimurium LT2; the eutL gene was inserted into pET-22b (+); not shown: Strep tag, C-terminal, kept

What all share (details): both partners purified
In experiment [1] the target is T1, EutQ N-terminal domain fused with GB1 at its C terminus (EutQ^1–99-GB1) (S. Typhimurium LT2, UniProt Q9ZFV5 1-99).
T1 construct: EutQ of S. Typhimurium LT2, N-terminal region, residues 1-99 (helices H1 to H4); Cloned into pETM11; Order of the chain: EutQ 1-99, hexahistidine tag, GB1; Uniformly 15N-labelled (15N, 13C for assignment) for NMR; also called N-terminal region of EutQ; source: E. coli BL21 (DE3) star, purified (His-trap, SEC on S200 Superdex)
T1 sequence: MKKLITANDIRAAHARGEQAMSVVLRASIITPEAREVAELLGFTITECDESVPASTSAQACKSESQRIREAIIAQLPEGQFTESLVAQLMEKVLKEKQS
The experiment in a line: ITC; 20 μM protein in the cell, 200 to 400 μM peptide in the syringe; 19 injections, 25°C; 20 mM Na2HPO4, 20 mM NaCl, pH 6.5.

A further experiment concerns the target T2, EutQ (residues 1 to 229) (S. Typhimurium LT2, UniProt Q9ZFV5 1-229).
T2 construct: About 25 kDa per monomer, about 50 kDa dimer by SEC-MALS; Uniformly 15N-labelled for NMR; also called full-length EutQ; WT EutQ; source: E. coli BL21 (DE3) star, purified (His-trap, SEC on S200 Superdex)
T2 sequence: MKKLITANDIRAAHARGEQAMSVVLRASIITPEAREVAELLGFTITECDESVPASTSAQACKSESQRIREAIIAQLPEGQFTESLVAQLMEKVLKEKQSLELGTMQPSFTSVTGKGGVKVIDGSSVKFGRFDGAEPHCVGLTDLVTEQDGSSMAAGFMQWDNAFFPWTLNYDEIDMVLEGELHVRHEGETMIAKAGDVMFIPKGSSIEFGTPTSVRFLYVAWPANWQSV
The description is as above.

Another experiment concerns the target T3, EutQ Q75A (S. Typhimurium LT2, UniProt Q9ZFV5 1-229, Q75A).
T3 construct: EutQ of S. Typhimurium LT2 with the point mutation Q75A; also called Q75A mutant
T3 sequence: T2 sequence with Q75A
The experiment in a line: ITC; point mutants of EutQ against EutC^1–20 (figs. S25 and S26); the method is not given, the Kd is compared with the ITC Kd of WT EutQ.

The target of the experiment “EutL-strep” is B3. The experiment in a line: MST; His-tagged target protein labelled with dye, 0.25 μM; unlabelled strep-tagged protein in twofold dilution series (EutL up to 24 μM, EutQ up to 108 μM); Monolith NT.115, 25°C, 60% excitation power.
In another experiment the target is T4, EutQ-strep (S. Typhimurium LT2, UniProt Q9ZFV5 1-229).
T4 construct: EutQ of S. Typhimurium LT2; the eutQ gene was inserted into pET-22b (+); source: E. coli BL21(DE3), purified (Strep-tag XT, gel filtration); not shown: Strep tag, C-terminal, kept
T4 sequence: T2 sequence
The description is as above.

In the next experiment the target is T5, EutQ-his (S. Typhimurium LT2, UniProt Q9ZFV5 1-229, dye on the His tag (His-tagged target proteins were labelled with dyes)).
T5 construct: EutQ of S. Typhimurium LT2; the eutQ gene was inserted into pET-22b (+); source: E. coli BL21(DE3), purified (Ni-NTA, gel filtration); not shown: His tag, C-terminal, kept
T5 sequence (looked up): T2 sequence
The experiment is described as above.

Residue numbers refer to the chain shown, from its start.

Turning to B1, in experiment [1], binding was characterised by a dissociation constant (Kd) of 7.6 µM, the dH is -9.63 ± 0.48 kcal/mol and the “stoichiometry N” value was about 1. Moreover, in the experiment with EutQ (residues 1 to 229), the Kd amounted to 6.35 µM, the dH is -9.24 ± 0.01 kcal/mol and the “stoichiometry N” value was about 2. Further, the Kd with EutQ Q75A was determined as 21.5 µM.
Regarding B2, the binding result with EutL-strep and in the experiment with EutQ-strep was “binds” throughout.
Take B3: the binding result with EutQ-his is “binds”.
